Experimental data reported in PMC5040251, “The Structure of Treponema pallidum Tp0751 (Pallilysin) Reveals a Non-canonical Lipocalin Fold That Mediates Adhesion to Extracellular Matrix Components and Interactions with Host Cells” (PLoS Pathogens, 2016).
Ends that are not written are not given here.

T1: fibrinogen (Homo sapiens, UniProt P02671+P02675+P02679)
T1 construct: purchased Calbiochem, purchased from VWR International
T1 sequence (P02671 20-629 limits assumed): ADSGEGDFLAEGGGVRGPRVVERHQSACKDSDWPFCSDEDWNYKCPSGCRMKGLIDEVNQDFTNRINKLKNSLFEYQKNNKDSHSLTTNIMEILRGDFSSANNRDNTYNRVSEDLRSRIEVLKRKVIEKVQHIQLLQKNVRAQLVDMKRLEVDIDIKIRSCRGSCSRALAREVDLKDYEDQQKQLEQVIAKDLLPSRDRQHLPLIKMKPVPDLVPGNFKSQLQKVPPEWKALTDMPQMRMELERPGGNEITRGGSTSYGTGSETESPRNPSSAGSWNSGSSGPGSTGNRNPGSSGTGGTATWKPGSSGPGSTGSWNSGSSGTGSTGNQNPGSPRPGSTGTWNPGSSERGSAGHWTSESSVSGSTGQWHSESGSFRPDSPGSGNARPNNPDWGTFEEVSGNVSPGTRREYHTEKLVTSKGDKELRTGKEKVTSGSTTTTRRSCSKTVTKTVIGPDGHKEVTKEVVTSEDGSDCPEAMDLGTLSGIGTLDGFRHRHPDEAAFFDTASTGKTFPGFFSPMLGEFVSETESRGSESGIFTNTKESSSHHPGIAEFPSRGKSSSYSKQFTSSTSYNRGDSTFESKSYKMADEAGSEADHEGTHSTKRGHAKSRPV
T1 sequence (P02675 31-491): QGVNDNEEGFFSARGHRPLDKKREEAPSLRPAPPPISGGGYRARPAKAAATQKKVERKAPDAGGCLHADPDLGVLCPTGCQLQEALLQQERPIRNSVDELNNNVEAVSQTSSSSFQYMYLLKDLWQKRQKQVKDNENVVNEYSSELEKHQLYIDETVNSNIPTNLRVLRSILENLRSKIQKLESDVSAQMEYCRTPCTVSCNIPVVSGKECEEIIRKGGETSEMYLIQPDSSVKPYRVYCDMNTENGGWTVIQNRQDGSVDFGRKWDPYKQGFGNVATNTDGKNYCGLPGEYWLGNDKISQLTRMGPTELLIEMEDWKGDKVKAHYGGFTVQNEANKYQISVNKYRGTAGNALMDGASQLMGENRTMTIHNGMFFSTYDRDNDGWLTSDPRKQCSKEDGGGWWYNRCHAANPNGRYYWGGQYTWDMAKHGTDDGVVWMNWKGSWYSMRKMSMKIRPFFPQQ
T1 sequence (P02679 27-433 limits assumed): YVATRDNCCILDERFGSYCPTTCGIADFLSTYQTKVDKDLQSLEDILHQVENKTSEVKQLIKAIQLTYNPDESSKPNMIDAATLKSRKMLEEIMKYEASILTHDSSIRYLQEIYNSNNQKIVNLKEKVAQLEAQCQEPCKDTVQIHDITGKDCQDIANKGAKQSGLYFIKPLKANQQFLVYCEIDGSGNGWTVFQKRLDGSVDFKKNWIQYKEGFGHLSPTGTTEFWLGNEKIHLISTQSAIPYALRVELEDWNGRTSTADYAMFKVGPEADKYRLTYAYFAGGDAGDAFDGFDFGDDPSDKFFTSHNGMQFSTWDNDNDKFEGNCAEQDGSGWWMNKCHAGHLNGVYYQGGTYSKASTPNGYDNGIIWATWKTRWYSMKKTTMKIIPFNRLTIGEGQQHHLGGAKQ

T2: plasminogen-depleted human fibrinogen (human, UniProt P02671-2 20-644; P02675 31-491; P02679-2 27-437)
T2 construct: fibrinogen alpha chain, human; fibrinogen beta chain, human; fibrinogen gamma chain, human; also called Fg; source: bought: Calbiochem (through VWR International)
T2 sequence (looked up) 1: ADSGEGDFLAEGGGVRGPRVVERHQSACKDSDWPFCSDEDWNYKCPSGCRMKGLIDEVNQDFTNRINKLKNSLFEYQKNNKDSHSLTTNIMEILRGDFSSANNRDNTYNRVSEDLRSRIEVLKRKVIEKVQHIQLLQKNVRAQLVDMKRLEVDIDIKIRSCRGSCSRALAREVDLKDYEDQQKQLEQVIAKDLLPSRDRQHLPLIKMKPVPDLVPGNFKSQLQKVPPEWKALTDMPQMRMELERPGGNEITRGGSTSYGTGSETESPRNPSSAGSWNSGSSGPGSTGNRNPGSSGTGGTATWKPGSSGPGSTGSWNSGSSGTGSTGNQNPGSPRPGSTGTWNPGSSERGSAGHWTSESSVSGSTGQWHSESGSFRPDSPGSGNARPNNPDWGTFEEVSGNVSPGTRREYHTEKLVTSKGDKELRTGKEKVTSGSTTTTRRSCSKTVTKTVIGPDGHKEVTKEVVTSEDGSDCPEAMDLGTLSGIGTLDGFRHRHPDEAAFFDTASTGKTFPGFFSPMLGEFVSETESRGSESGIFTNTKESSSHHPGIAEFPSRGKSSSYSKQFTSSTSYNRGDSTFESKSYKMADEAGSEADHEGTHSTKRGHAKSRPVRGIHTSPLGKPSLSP
T2 sequence (looked up) 2: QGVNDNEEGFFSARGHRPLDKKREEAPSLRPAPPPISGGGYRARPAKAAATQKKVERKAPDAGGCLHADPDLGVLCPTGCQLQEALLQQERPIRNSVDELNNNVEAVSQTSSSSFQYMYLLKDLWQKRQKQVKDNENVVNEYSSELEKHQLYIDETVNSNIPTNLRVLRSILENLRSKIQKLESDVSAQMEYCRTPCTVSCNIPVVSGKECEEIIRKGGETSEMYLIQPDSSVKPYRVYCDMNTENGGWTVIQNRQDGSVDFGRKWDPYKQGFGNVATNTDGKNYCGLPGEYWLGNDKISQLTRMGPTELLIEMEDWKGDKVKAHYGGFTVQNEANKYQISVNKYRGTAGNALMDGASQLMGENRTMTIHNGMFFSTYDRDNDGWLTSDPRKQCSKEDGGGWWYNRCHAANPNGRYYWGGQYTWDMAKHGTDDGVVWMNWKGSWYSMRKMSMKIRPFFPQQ
T2 sequence (looked up) 3: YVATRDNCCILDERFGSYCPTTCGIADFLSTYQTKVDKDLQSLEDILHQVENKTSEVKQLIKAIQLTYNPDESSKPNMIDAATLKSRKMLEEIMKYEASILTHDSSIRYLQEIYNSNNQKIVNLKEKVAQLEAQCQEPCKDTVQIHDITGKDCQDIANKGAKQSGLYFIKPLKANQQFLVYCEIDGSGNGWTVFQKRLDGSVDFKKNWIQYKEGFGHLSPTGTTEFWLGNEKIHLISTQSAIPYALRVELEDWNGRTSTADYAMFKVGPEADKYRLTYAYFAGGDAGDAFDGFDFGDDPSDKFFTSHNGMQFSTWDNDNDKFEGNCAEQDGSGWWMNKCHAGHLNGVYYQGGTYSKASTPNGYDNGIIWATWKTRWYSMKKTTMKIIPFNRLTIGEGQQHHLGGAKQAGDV


Columns and labels:
fibronectin [1] = test: Dose-dependent binding assay to immobilized fibronectin; conditions: plate binding to immobilized human plasma fibronectin; peptides serially diluted 1:2 from 40 to 0.625; absorbance 600 nm, three wells, representative of two independent experiments; non-linear regression, GraphPad Prism; read-out: Apparent Kd (Fn)
Protocol: (§1) Fig 3 Tp0751 lipocalin derived peptides directly bind host proteins. (A) Thirteen overlapping Tp0751 synthetic 24-mer peptides were evaluated for binding to immobilized fibrinogen, fibronectin, collagen type I, and collagen type IV. Average absorbance readings (600 nm) from three wells are presented with bars indicating standard error and the results are representative of two independent experiments. […] Average absorbance readings (600 nm) from three wells are presented with bars indicating standard error and the results are representative of two independent experiments. […] The strand colored in cyan reflects the overlap of p10 and p11. Color coded sequences of peptides p4, p6, p10, p10scr1, and p10scr2 are shown. Arginine residues in the p10 peptides are indicated by underlining.
(§2) Plasminogen-depleted human fibrinogen (Calbiochem) was purchased from VWR International. Laminin isolated from Engelbreth-Holm-Swarm murine sarcoma basement membrane and fibronectin isolated from human plasma were purchased from Sigma-Aldrich Canada Ltd. (Oakville, ON). Human collagen types I and IV (Rockland Immunochemicals, Inc.) were purchased from VWR International.
(§3) To test for binding of synthetic Tp0751 peptides p1-p13, p1scr, p6scr, p10scr1, and p10scr2 to the host proteins fibrinogen, fibronectin, laminin, collagen type I, and collagen type IV, initial binding assays were performed as described previously. For dose-dependent binding assays, recombinant proteins were serially diluted 1:2 from either 10 μM to 0.156 μm (Tp0751_78A used for crystallization and Tp0751_78 WT) or 40 μm to 0.625 μm (peptides p4, p6, p10, p11, p10scr1, and p10scr2). Average absorbance readings (600 nm) from three wells are presented with bars indicating standard error and the results are representative of two independent experiments. Plates were read at 600 nm with a BioTek enzyme-linked immunosorbent assay plate reader (Fisher Scientific, Ottawa, ON). All statistical analyses were performed using the Student’s two-tailed t-test. Non-linear regression curves were fitted and apparent dissociation constants (K d) were calculated using GraphPad Prism data analysis software (San Diego, CA).

collagen type IV = test: Initial (single point) binding screen of Tp0751 peptide library to immobilized collagen type IV; conditions: immobilized human collagen type IV; absorbance 600 nm, three wells, two independent experiments; Student's two-tailed t-test against non-binding peptides
Protocol: as §1, §2, §3

fibrinogen = molecular target: T1, fibrinogen; test: Initial (single point) binding screen of Tp0751 peptide library to immobilized fibrinogen; conditions: absorbance 600 nm, three wells, two independent experiments, Student's two-tailed t-test against non-binding peptides
Protocol: as §1, §2, §3

collagen type I = test: Initial (single point) binding screen of Tp0751 peptide library to immobilized collagen type I; conditions: immobilized human collagen type I; absorbance 600 nm, three wells, two independent experiments; Student's two-tailed t-test against non-binding peptides
Protocol: as §1, §2, §3

fibronectin [2] = test: Initial (single point) binding screen of Tp0751 peptide library to immobilized fibronectin; set-up: species or system human; conditions: absorbance 600 nm, three wells, two independent experiments, Student's two-tailed t-test against non-binding peptides
Protocol: as §1, §2, §3

[3] = molecular target: fibronectin isolated from human plasma (human); test: ELISA; dose-dependent plate binding assay on immobilised fibrinogen or fibronectin; His6-tagged synthetic peptides serially diluted 1:2 from 40 μM to 0.625 μM; absorbance at 600 nm; apparent Kd by non-linear regression (GraphPad Prism)
[4] = molecular target: T2, plasminogen-depleted human fibrinogen; test: as above; conditions: both partners purified
[5] = molecular target: T2, plasminogen-depleted human fibrinogen; test: ELISA; dose-dependent plate binding assay on immobilised fibrinogen; recombinant Tp0751 proteins serially diluted 1:2 from 10 μM to 0.156 μM; absorbance at 600 nm; apparent Kd by non-linear regression (GraphPad Prism); conditions: both partners purified

| Molecule | Kd [3] [µM] | Kd [4] [µM] | also measured |
| --- | --- | --- | --- |
| HHHHHHTSRVKLTISFERSLVNRTRTARFI [p10scr1] |  |  | Kd (fibronectin [1]): 1.3 ± 0.1 µM; Binding to collagen IV in initial binding screen (collagen type IV): enhanced binding relative to p10; Binding to fibrinogen in initial binding screen (fibrinogen): enhanced binding relative to p10; Binding to collagen I in initial binding screen (collagen type I): enhanced binding relative to p10; Binding to fibronectin in initial binding screen (fibronectin [2]): enhanced binding relative to p10 |
| Tp0751 synthetic peptide p4 (from UniProt O83732 88-111) | 2.4 |  |  |
| Tp0751 synthetic peptide p6 (from UniProt O83732 116-139) | 4.5 |  |  |
| Tp0751 synthetic peptide p11 (from UniProt O83732 186-209) | 5.8 |  |  |
| QGALQHLLAGLWIQTEISPNSGDI (Tp0751 (pallilysin), Treponema pallidum subsp. pallidum; its central four residues LWIQ (126-129) are printed; also called peptide 6; source: synthetic peptide; not shown: His6, N-terminal, kept) [Tp0751 synthetic peptide p6] |  | 10.5 ± 2 |  |
| SIRRRLEVTFESHEVIHVRAVEDV (Tp0751 (pallilysin), Treponema pallidum subsp. pallidum; shares its first 10 residues (with the arginine triplet) with p10; source: synthetic peptide; not shown: His6, N-terminal, kept) [Tp0751 synthetic peptide p11] |  | 9.2 ± 1 |  |
| GGAAQTHTQPPVQTAMRIALWNRA (Tp0751 (pallilysin), Treponema pallidum subsp. pallidum; its central four residues PVQT (98-101) are printed; also called peptide 4; source: synthetic peptide; not shown: His6, N-terminal, kept) [Tp0751 synthetic peptide p4] |  | 6.9 ± 0.4 |  |
| VAREFNKSRTILFRTSVTRLSTRI [second scrambled version of Tp0751 peptide 10 (p10scr2)] | 7.9 |  |  |
| Tp0751_78 WT (domain or fragment, Tp0751 (pallilysin), Treponema pallidum subsp. pallidum, Ser78 to Pro237 (C-terminus), wild type at Glu199; The methods tell vector (modified pET28a, TEV-cleavable N-terminal His6), host strain and purification only for the E199A constructs; also called wild-type Tp0751_78 WT; source: E. coli, purified) SHGNAPPAPVGGAAQTHTQPPVQTAMRIALWNRATHGEQGALQHLLAGLWIQTEISPNSGDIHPLLFFDREHAEITFSRASVQEIFLVDSAHTHRKTVSFLTRNTAISSIRRRLEVTFESHEVIHVRAVEDVARLKIGSTSMWDGQYTRYHAGPASAPSP |  |  | Kd [5]: 6.1 ± 1.7 µM |
| Tp0751_78 E199A (Tp0751_78A) (domain or fragment, Treponema pallidum subsp. pallidum, UniProt O83732 78-237, looked up, Tp0751 (pallilysin), Treponema pallidum subsp. pallidum, Ser78 to Pro237 (C-terminus), with E199A; The construct used for crystallization; also called pallilysin Ser78 to Pro237 E199A; not shown: His6, N-terminal, cleaved) SHGNAPPAPVGGAAQTHTQPPVQTAMRIALWNRATHGEQGALQHLLAGLWIQTEISPNSGDIHPLLFFDREHAEITFSRASVQEIFLVDSAHTHRKTVSFLTRNTAISSIRRRLEVTFESHAVIHVRAVEDVARLKIGSTSMWDGQYTRYHAGPASAPSP |  |  | Kd [5]: 2 ± 0.4 µM |
| RKTVSFLTRNTAISSIRRRLEVTF (Tp0751 (pallilysin), Treponema pallidum subsp. pallidum; Its composition equals that of the printed scrambled peptide p10scr2; also called peptide 10; source: synthetic peptide; not shown: His6, N-terminal, kept) [Tp0751 synthetic peptide p10] |  | 1.6 ± 0.1 |  |
